Results: the Human Domainome abundance scans (Beltran et al. 2025)
± gives the uncertainty stated by the source.

B1: Homeobox expressed in ES cells 1, residues 110 to 165; numbered along this chain, Q9UBX0 (parent)
chain: RPRTAFTQNQIEVLENVFRVNCYPGIDIREDLAQKLNLEEDRIQIWFQNRRAKLKR

Variants of: B1
Assay: abundance fitness (aPCA) (normalised: wild type 0, dead -1); higher = more abundant; growth selection in yeast, the domain comes from the species named
Settings: Homo sapiens

Variant	abundance fitness
Q44S	-0.129 ± 0.08
Q44K	0.179 ± 0.17
Q44G	-0.206 ± 0.12
Q44I	0.061 ± 0.12
Q44N	-0.059 ± 0.26
Q44E	-0.532 ± 0.33
Q44Y	-0.582 ± 0.33
Q44V	-0.161 ± 0.12
Q44A	0.087 ± 0.14
Q44D	-0.007 ± 0.17
Q44F	-0.385 ± 0.28
Q44C	0.033 ± 0.085
Q44M	-0.12 ± 0.26
Q44W	-0.277 ± 0.23
Q44L	-0.079 ± 0.11
Q44H	0.35 ± 0.18
Q44T	0.038 ± 0.1
Q44P	-0.982 ± 0.31
I43S	-0.917 ± 0.25
I43K	-0.451 ± 0.4
I43P	-0.912 ± 0.44
I43L	-0.581 ± 0.16
I43W	-0.822 ± 0.16
I43E	-0.966 ± 0.48

Variant	abundance fitness
I43T	-0.543 ± 0.31
I43R	-0.936 ± 0.26
I43Q	-0.796 ± 0.46
I43G	-0.98 ± 0.13
L36C	-0.508 ± 0.31
L36R	-0.984 ± 0.19
L36H	-0.712 ± 0.13
L36K	-0.931 ± 0.36
L36W	-0.132 ± 0.097
L36G	-0.86 ± 0.15
L36F	0.221 ± 0.2
L36V	-1.01 ± 0.21
L36D	-0.862 ± 0.3
L36S	-0.855 ± 0.34
L36A	-1.01 ± 0.36
L36E	-0.924 ± 0.34
L36M	-0.11 ± 0.34
A33C	-0.186 ± 0.31
A33Y	-0.396 ± 0.23
A33V	-0.363 ± 0.16
A33L	-0.89 ± 0.1
A33W	-0.694 ± 0.16
A33M	-0.252 ± 0.33
A33G	-0.242 ± 0.079

Variant	abundance fitness
A33E	-0.848 ± 0.29
A33Q	0.36 ± 0.48
A33I	-0.703 ± 0.2
A33S	-0.124 ± 0.09
A33K	-0.566 ± 0.33
R42Q	0.351 ± 0.3
R42S	0.096 ± 0.078
R42V	0.135 ± 0.072
R42Y	0.037 ± 0.36
R42L	-0.156 ± 0.16
R42H	-0.05 ± 0.077
R42T	0.257 ± 0.14
R42K	0.184 ± 0.3
R42E	0.255 ± 0.2
R42W	0.065 ± 0.22
R42D	-0.361 ± 0.25
R42N	0.049 ± 0.15
R42A	0.076 ± 0.11
R42C	-0.03 ± 0.12
R42G	-0.399 ± 0.11
R42I	0.055 ± 0.3
I26D	-0.297 ± 0.11
I26L	0.151 ± 0.12
I26E	-0.19 ± 0.19

Variant	abundance fitness
I26S	-0.078 ± 0.094
I26K	0.305 ± 0.14
I26Y	-0.159 ± 0.066
I26G	-0.319 ± 0.16
I26N	0.226 ± 0.23
I26C	-0.218 ± 0.15
I26F	-0.08 ± 0.2
I26R	0.002 ± 0.088
I26P	0.054 ± 0.21
I26M	-0.38 ± 0.3
I26A	-0.057 ± 0.14
I26W	-0.138 ± 0.13
I26T	-0.341 ± 0.14
I26Q	0.013 ± 0.14
L38E	-0.521 ± 0.25
L38V	0.061 ± 0.065
L38T	0.077 ± 0.074
L38P	-0.533 ± 0.25
L38G	-0.952 ± 0.19
L38Y	-0.717 ± 0.26
L38Q	-0.223 ± 0.39
L38S	-0.259 ± 0.11
L38D	-0.665 ± 0.38
L38N	-0.572 ± 0.27

Variant	abundance fitness
L38C	0.151 ± 0.11
L38I	0.146 ± 0.12
L38F	0.009 ± 0.13
L38W	-0.885 ± 0.36
L38A	-0.181 ± 0.14
L38R	-0.849 ± 0.1
L38K	-0.685 ± 0.42
E40C	-0.348 ± 0.076
E40L	-0.338 ± 0.13
E40N	-0.614 ± 0.31
E40V	-0.244 ± 0.13
E40S	-0.162 ± 0.1
E40K	-0.611 ± 0.26
E40R	-0.167 ± 0.091
E40D	-0.119 ± 0.18
E40G	-0.399 ± 0.13
E40F	-0.078 ± 0.17
E40A	0.052 ± 0.091
E40I	-0.205 ± 0.19
E40H	-0.282 ± 0.17
E40Y	-0.57 ± 0.12
E40Q	-0.047 ± 0.14
E40W	-0.928 ± 0.39
E40T	-0.124 ± 0.11

Variant	abundance fitness
L32I	-0.363 ± 0.4
L32W	-0.386 ± 0.17
L32P	-0.884 ± 0.46
L32D	-0.826 ± 0.45
L32R	-0.886 ± 0.1
L32G	-0.904 ± 0.12
L32F	-0.757 ± 0.24
L32V	-0.685 ± 0.13
L32T	-0.495 ± 0.24
L32M	-0.689 ± 0.23
L32S	-0.787 ± 0.14
L32E	-0.824 ± 0.45
L32A	-0.832 ± 0.17
L32Q	-0.487 ± 0.41
L32K	-0.833 ± 0.18
D27S	0.233 ± 0.091
D27M	-0.134 ± 0.1
D27L	-0.271 ± 0.14
D27P	-0.128 ± 0.22
D27V	-0.314 ± 0.086
D27N	0.034 ± 0.38
D27I	-0.484 ± 0.43
D27R	0.137 ± 0.1
D27K	-0.185 ± 0.16

Variant	abundance fitness
D27G	-0.02 ± 0.07
D27Q	0.203 ± 0.23
D27A	-0.259 ± 0.15
D27W	-0.526 ± 0.18
D27H	-0.503 ± 0.38
D27C	-0.155 ± 0.081
D27E	0.075 ± 0.091
N37D	-0.151 ± 0.31
N37M	-0.613 ± 0.36
N37S	-0.459 ± 0.22
N37C	-0.18 ± 0.065
N37F	-0.195 ± 0.23
N37K	-0.032 ± 0.079
N37P	-0.051 ± 0.23
N37Q	-0.189 ± 0.085
N37T	-0.258 ± 0.12
N37G	0.093 ± 0.098
N37I	-0.431 ± 0.38
N37W	-0.863 ± 0.47
N37L	-0.312 ± 0.13
N37H	-0.343 ± 0.3
N37Y	-0.634 ± 0.15
N37E	-0.138 ± 0.13
Y23V	-0.546 ± 0.21

Variant	abundance fitness
Y23W	-0.063 ± 0.091
Y23T	-0.137 ± 0.2
Y23S	-0.04 ± 0.092
G25Y	-0.741 ± 0.1
G25V	-1.11 ± 0.38
G25H	0.151 ± 0.25
G25A	-0.079 ± 0.16
G25S	-0.106 ± 0.16
G25C	-0.282 ± 0.25
G25W	-0.755 ± 0.11
G25P	0.187 ± 0.13
G25M	-0.688 ± 0.21
G25K	0.11 ± 0.19
G25L	-0.874 ± 0.28
G25Q	-0.744 ± 0.4
G25T	-0.027 ± 0.12
G25E	-0.065 ± 0.14
E39I	-1.06 ± 0.36
E39A	-0.144 ± 0.18
E39Q	-0.185 ± 0.15
E39L	-0.507 ± 0.12
E39V	-0.619 ± 0.12
E39M	-0.562 ± 0.15
E39N	-0.241 ± 0.26

Variant	abundance fitness
E39W	-0.752 ± 0.23
E39G	-0.154 ± 0.098
E39S	0.02 ± 0.082
E39K	-0.476 ± 0.45
E39Y	-0.675 ± 0.12
E39C	-0.104 ± 0.088
E39R	-0.34 ± 0.11
E39D	0.333 ± 0.33
R29S	-0.709 ± 0.17
R29G	-0.704 ± 0.17
R29I	-0.2 ± 0.17
R29N	-0.864 ± 0.47
R29M	0.303 ± 0.33
R29V	0.011 ± 0.096
R29P	-0.708 ± 0.1
R29E	-1.23 ± 0.44
R29Y	-0.284 ± 0.18
R29A	-0.093 ± 0.12
R29L	-0.222 ± 0.15
R29W	-0.18 ± 0.15
R29C	-0.019 ± 0.13
R29Q	-0.299 ± 0.32
R29D	-0.749 ± 0.22
R29F	-0.198 ± 0.18

Variant	abundance fitness
R29T	0.183 ± 0.16
R29K	-0.691 ± 0.28
D31M	-0.32 ± 0.25
D31V	-0.425 ± 0.09
D31T	-0.568 ± 0.41
D31A	-0.106 ± 0.14
D31R	-0.032 ± 0.056
D31Y	-0.158 ± 0.21
D31I	0.221 ± 0.4
D31C	-0.468 ± 0.16
D31P	-0.675 ± 0.36
D31F	0.535 ± 0.19
D31L	-0.411 ± 0.087
D31K	0.679 ± 0.15
D31N	0.066 ± 0.15
D31W	-0.532 ± 0.2
Q34R	0.135 ± 0.095
Q34Y	-0.347 ± 0.32
Q34E	-0.076 ± 0.087
Q34S	-0.197 ± 0.13
Q34N	-0.216 ± 0.26
Q34G	-0.168 ± 0.074
Q34H	-0.129 ± 0.16
Q34A	-0.423 ± 0.17

Variant	abundance fitness
Q34K	-0.119 ± 0.18
Q34I	-0.106 ± 0.4
Q34D	-0.234 ± 0.17
Q34L	-0.157 ± 0.12
Q34T	0.046 ± 0.064
P24V	-0.793 ± 0.15
P24G	-0.641 ± 0.17
P24Q	-0.314 ± 0.23
P24D	-0.606 ± 0.39
P24C	-1.09 ± 0.24
P24K	0.273 ± 0.27
P24R	-0.995 ± 0.23
P24E	-0.644 ± 0.34
P24L	-0.392 ± 0.25
P24Y	-0.366 ± 0.37
P24W	-0.896 ± 0.17
P24M	-0.815 ± 0.14
P24I	-0.662 ± 0.23
I45E	0.079 ± 0.13
I45T	0.114 ± 0.11
I45H	-0.166 ± 0.12
I45C	0.196 ± 0.14
I45R	0.033 ± 0.099
I45L	-0.026 ± 0.1

Variant	abundance fitness
I45W	0.444 ± 0.15
I45F	0.157 ± 0.21
I45D	0.052 ± 0.2
I45M	-0.049 ± 0.097
I45N	0.166 ± 0.2
I45Q	0.108 ± 0.069
I45K	0.193 ± 0.19
I45G	-0.031 ± 0.083
D41H	-0.039 ± 0.31
D41S	0.115 ± 0.11
D41M	-0.174 ± 0.14
D41I	-0.027 ± 0.17
D41R	0.026 ± 0.073
D41C	-0.081 ± 0.15
D41G	-0.171 ± 0.094
D41P	-0.044 ± 0.15
D41E	0.08 ± 0.1
D41K	-0.174 ± 0.23
D41F	-0.139 ± 0.12
D41W	0.055 ± 0.15
D41V	-0.095 ± 0.13
D41T	0.023 ± 0.11
D41Q	-0.012 ± 0.21
D41N	0.665 ± 0.18

Variant	abundance fitness
K35N	-0.317 ± 0.15
K35W	-0.743 ± 0.11
K35H	-0.651 ± 0.47
K35Y	-0.364 ± 0.29
K35G	-0.657 ± 0.14
K35M	-0.377 ± 0.1
K35V	-0.694 ± 0.18
K35R	-0.194 ± 0.075
K35S	-0.487 ± 0.14
K35Q	-0.197 ± 0.19
K35C	-0.515 ± 0.3
K35E	0.05 ± 0.13
K35F	-0.603 ± 0.28
K35P	-1.15 ± 0.3
K35I	-0.468 ± 0.18
I28V	0.045 ± 0.13
I28E	-0.176 ± 0.14
I28M	-0.655 ± 0.27
I28R	-0.667 ± 0.16
I28G	-0.692 ± 0.21
I28A	-0.089 ± 0.16
I28Q	-0.171 ± 0.14
I28K	-0.852 ± 0.33
I28Y	-0.309 ± 0.23

Variant	abundance fitness
I28C	-0.534 ± 0.41
I28W	-0.577 ± 0.17
I28L	-0.209 ± 0.14
I28S	-0.505 ± 0.091
I28P	-0.725 ± 0.19
E30D	-0.18 ± 0.18
E30F	0.048 ± 0.17
E30M	-0.189 ± 0.23
E30C	-0.063 ± 0.091
E30H	0.234 ± 0.15
E30I	0.099 ± 0.12
E30W	-0.002 ± 0.2
E30N	0.514 ± 0.16
E30P	-0.781 ± 0.41
E30L	0.134 ± 0.083
E30R	0.196 ± 0.1
E30G	-0.131 ± 0.083
E30A	-0.023 ± 0.1
E30V	-0.186 ± 0.073
E30Y	-0.544 ± 0.33
E30S	-0.209 ± 0.15
E30K	0.169 ± 0.28
